Results as given in article PMC11385167 (mAbs, 2024).

Target: T1, human MR C-type 1, full extracellular domain (human, UniProt P22897 19-1389)
T1 sequence (looked up): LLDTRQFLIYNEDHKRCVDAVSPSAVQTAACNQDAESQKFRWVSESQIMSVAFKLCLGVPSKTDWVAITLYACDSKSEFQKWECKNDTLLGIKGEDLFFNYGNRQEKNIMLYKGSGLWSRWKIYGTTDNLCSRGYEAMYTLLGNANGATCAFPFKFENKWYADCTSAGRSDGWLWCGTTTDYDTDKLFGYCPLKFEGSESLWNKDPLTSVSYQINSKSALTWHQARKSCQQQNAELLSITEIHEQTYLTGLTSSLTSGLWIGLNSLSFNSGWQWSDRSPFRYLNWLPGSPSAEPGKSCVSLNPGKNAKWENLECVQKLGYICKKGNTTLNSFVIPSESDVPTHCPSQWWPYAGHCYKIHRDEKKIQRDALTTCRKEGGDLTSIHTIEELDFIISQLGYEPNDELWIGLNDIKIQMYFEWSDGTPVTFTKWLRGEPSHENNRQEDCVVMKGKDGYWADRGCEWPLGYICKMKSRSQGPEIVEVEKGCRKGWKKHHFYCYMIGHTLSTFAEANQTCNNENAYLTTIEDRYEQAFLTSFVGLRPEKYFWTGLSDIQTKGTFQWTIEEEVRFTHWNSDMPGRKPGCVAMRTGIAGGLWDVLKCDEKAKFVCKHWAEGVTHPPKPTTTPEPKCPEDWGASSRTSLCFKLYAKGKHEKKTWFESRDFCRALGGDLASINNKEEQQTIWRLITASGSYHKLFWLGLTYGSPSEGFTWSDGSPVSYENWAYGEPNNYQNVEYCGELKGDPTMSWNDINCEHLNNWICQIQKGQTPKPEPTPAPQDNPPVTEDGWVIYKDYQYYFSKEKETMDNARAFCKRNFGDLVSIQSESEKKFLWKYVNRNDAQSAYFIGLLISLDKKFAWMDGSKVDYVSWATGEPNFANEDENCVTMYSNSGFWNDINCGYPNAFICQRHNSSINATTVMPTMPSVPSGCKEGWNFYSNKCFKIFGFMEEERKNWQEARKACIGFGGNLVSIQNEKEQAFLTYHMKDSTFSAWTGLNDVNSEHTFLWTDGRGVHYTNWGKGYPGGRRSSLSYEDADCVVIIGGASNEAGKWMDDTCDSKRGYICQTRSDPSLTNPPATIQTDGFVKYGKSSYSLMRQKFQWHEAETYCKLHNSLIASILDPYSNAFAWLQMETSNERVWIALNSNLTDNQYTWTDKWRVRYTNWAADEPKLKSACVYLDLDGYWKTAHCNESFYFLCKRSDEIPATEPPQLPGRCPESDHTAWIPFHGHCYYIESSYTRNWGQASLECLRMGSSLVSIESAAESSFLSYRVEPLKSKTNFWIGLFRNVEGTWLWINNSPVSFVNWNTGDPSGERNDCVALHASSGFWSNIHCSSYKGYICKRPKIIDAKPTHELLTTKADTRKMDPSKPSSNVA
Experiment: SPR

B1: RNAse B (enzyme, UniProt P61823 27-150, looked up)
chain: KETAAAKFERQHMDSSTSAASSSNYCNQMMKSRNLTKDRCKPVNTFVHESLADVQAVCSQKNVACKNGQTNCYQSYSTMSITDCRETGSSKYPNCAYKTTQANKHIIVACEGNPYVPVHFDASV
modifications: single N-glycosylation site containing mainly M5 and M6 N-glycans
Kd: 1.3 µM
